Measurements as given in publication PMC13462943.

B1: GLP methyltransferase domain (aa 1001-1266), wild type [human] / itself (parent)
chain: DRPSPVERIVSRDIARGYERIPIPCVNAVDSEPCPSNYKYVSQNCVTSPMNIDRNITHLQYCVCIDDCSSSNCMCGQLSMRCWYDKDGRLLPEFNMAEPPLIFECNHACSCWRNCRNRVVQNGLRARLQLYRTRDMGWGVRSLQDIPPGTFVCEYVGELISDSEADVREEDSYLFDLDNKDGEVYCIDARFYGNVSRFINHHCEPNLVPVRVFMAHQDLRFPRIAFFSTRLIEAGEQLGFDYGERFWDIKGKLFSCRCGSPKCRHS

Variants of: B1
Assay: native mass spectrometry (nESI-MS)
Details: with itself; parent: 1; read off a plot

Row | Variant | ratio to parent
1 | chain 1 C73Y | 0.34
